Numbering of substitutions follows the chain as printed. Each block holds one binder with its values, some of them ahead of it.
Key:
Mus4-1BB-hFc = molecular target: T1, Mus4-1BB-hFc (mouse; human, UniProt P20334 24-187); experiment: ELISA, Mus4-1BB-hFc coated at 2 μg/mL, anti-human kappa+lambda-HRP
T1 construct: range 24-187; also called 鼠4-1BB抗原蛋白Mus4-1BB-hFc; not shown: Fc tag made by the same method as for hu4-1BB-hFc (human IgG1 Fc fragment)
T1 sequence (looked up): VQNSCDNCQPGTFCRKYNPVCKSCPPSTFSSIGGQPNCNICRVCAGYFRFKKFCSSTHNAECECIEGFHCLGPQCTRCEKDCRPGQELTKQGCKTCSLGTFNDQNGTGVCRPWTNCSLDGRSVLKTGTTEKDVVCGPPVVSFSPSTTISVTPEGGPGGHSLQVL

hu4-1BB-His = molecular target: T2, hu4-1BB-His (human, UniProt Q07011 24-186); experiment: ELISA, hu4-1BB-His coated at 2 μg/mL, anti-human IgG Fc-HRP
T2 construct: range 24-186; Expressed in ExpiCHO and purified on Ni beads; also called 抗原蛋白hu4-1BB-His; 人4-1BB抗原蛋白; not shown: C-terminal His tag

hu4-1BB-hFc = molecular target: T3, hu4-1BB-hFc (human, UniProt Q07011 24-186); experiment: ELISA
T3 construct: range 24-186; also called 4-1BB-Fc; not shown: human IgG1 Fc fragment fused at the C-terminus

生物素化的hu4-1BB-hFc = molecular target: T4, 生物素化的hu4-1BB-hFc (human, UniProt Q07011 24-186, EZ-Link Sulfo-NHS-LC-biotin label; the sites are not stated); experiment: ELISA
T4 construct: range 24-186; also called 生物素标记的hu4-1BB-hFc抗原蛋白; biotinylated hu4-1BB-hFc; not shown: human IgG1 Fc fragment fused at the C-terminus

[1] = molecular target: T5, 人4-1BB (Uniprot编号Q07011), expressed on cells (human, UniProt Q07011 24-255); experiment: flow cytometry on hu4-1BB-CHO cells
T5 construct: whole, on cells; also called hu4-1BB-CHO; 人4-1BB过表达细胞
T5 sequence (Q07011 24-255): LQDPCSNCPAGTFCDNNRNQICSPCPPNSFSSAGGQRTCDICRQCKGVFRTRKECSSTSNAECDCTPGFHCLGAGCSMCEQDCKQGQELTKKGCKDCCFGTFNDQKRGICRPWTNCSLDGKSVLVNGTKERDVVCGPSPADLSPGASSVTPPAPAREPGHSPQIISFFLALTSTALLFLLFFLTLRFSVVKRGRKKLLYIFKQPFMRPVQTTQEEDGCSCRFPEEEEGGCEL

binding result (Mus4-1BB-hFc): binds
EC50 (hu4-1BB-His): 0.411 µg/mL
B1: 99-2-17 (antibody, human IgG4 S228P, lambda, V domains shown)
VH: QVQLVQSGGGLVQPGGSLRLSCSASGFTFSSYAMHWVRQAPGKGLEYVSAISSNGGSTYYADSVKGRFTISRDNSKNTLYLQMSSLRAEDTAVYYCVKGSGWSPIDAFDIWGQGTMVTVSS
VL: QSALTQPPSVSGAPGQRVTISCTGSSSNIGAGYDVHWYQQLPGTAPKLLIYGNSNRPSGVPDRFSGSKSGTSASLAITGLQAEDEADYYCQSYDSSLSGSGAVFGGGTQLTVLG
notes: also called 抗体99-2-17; 母本抗体99-2-17

binding result (hu4-1BB-hFc): binds
binding result (生物素化的hu4-1BB-hFc): binds
B2: Ag10058 (antibody, human IgG4 S228P, kappa, V domains shown)
VH: EVQLVESGGGLVQPGGSLRLSCAASGFSLSTSGVGVGWIRQAPGKGLEWLALIDWDDDKYYSPSLKSRLTISRDNSKNTLYLQLNSLRAEDTAVYYCARGGSDTVLGDWFAYWGQGTLVTVSS
VL: DIQLTQSPSSLSASVGDRVTITCRASQSVSPYLAWYQQKPGKAPKLLIYDASSLESGVPSRFSGSGSGTDFTLTISSLQPEDFATYYCQQGYSLWTFGQGTKVEIKR
notes: also called 阳性对照抗体Ag10058

binding result [1]: binds
binding result (hu4-1BB-hFc): binds
binding result (生物素化的hu4-1BB-hFc): binds
binding result (hu4-1BB-His): binds
B3: Ag10131 (antibody, human IgG4 S228P, kappa, V domains shown)
VH: B2 VH with S32G, D56A, L106I
VL: B2 VL with V29I, S30G, P31S, S53N, S56T, S93Y
notes: also called 阳性对照抗体Ag10131; 对照抗体Ag10131

binding result (Mus4-1BB-hFc): binds
EC50 (hu4-1BB-His): 0.35 µg/mL
B4: 99-2-35 (antibody, human IgG4 S228P, kappa, V domains shown)
VH: EVQLLESGGGLVQPGGSLRLSCAASGFTFSSYEMNWVRQAPGKGLEWVSYISSSGSTIYYADSVKGRFTISRDNAKNSLYLQMNSLRAEDTAVYYCARDFNGGYSYYPIAFDIWGQGTMVTVSS
VL: EIVLTQSPATLSLSPGERATLSCRASQSVSSYLAWYQQKPGQAPRLLIYDASNRATGIPARFSGSGSGTDFTLTISSLEPEDFAVYYCQQRSNWPPMYTFGQGTKLEIKR
notes: also called 抗体99-2-35; 母本抗体99-2-35

Source: patent CN116554324A (SANYOU BIO INC, dated 2023)
